The record followed here is paper PMC11286566.

Assay [1] concerns the target Catcher-Ferritin (Catcher of the isopeptide linkage system, flexible linker, Ferritin NP subunit). Description: SDS-PAGE densitometry of the covalent conjugate; catcher-Ferritin and gE-Tag mixed at a 1:6 molar ratio, 24 h at 4°C; uncoupled gE-Tag removed by SEC (Superdex 200 Increase, 20 mM Tris-HCl, 25% sucrose w/v, pH 7.4); coupling efficiency by densitometry of reduced SDS-PAGE; isopeptide bond between Tag and Catcher.

For assay [2], the target named is Catcher-AP205 (Catcher of the isopeptide linkage system, flexible linker, bacteriophage AP205 VLP subunit) (bacteriophage AP205). Description: SDS-PAGE densitometry of the covalent conjugate; catcher-AP205 and gE-Tag mixed at a 1:2 molar ratio, 24 h at 22°C, then dialysed into 50 mM glycine, 25 mM sodium citrate, 0.1% Tween 20, pH 6.2; coupling efficiency by densitometry of reduced SDS-PAGE; isopeptide bond between Tag and Catcher.

With “gE-Tag (extracellular domain of VZV glycoprotein E with a C-terminal Tag of the isopeptide linkage system) (from UniProt P09259 31-544)”, the conjugation efficiency in assay [1] and in assay [2] was greater than 70% throughout.
